Results published in patent US20160009819A1.
Positions count from the first letter of the chain named.

T1: human [1-157]-mouse chimeric EL with C2 tag (human; mouse) (UniProt Q9WVG5)
T1 sequence: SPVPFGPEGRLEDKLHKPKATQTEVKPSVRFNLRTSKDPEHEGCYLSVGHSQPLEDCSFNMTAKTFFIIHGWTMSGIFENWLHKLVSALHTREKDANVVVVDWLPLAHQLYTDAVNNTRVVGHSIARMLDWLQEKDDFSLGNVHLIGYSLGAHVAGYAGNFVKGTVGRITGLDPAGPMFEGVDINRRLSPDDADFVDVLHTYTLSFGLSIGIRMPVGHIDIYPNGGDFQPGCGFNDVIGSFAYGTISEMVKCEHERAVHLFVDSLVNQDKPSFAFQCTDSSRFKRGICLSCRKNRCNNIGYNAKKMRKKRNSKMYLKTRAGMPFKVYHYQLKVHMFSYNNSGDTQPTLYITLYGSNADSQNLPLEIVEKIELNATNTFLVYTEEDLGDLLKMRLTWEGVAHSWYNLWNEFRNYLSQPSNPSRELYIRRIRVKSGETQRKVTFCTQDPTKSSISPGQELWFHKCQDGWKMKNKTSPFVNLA

T2: human [202-500]-mouse chimeric EL with C2 tag (mouse; human) (UniProt Q9WVG5)
T2 sequence: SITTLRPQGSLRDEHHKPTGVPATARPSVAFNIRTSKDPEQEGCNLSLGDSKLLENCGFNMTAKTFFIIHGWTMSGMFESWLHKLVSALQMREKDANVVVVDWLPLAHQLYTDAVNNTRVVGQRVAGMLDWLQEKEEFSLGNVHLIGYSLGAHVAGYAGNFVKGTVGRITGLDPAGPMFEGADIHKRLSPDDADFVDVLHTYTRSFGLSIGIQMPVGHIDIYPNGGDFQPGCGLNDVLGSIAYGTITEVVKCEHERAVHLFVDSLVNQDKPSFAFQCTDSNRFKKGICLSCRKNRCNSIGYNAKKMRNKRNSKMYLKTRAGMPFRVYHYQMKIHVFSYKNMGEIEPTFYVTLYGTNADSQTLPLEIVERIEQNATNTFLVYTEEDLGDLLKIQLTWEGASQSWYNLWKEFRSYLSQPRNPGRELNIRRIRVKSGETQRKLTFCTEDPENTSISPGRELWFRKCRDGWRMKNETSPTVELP

T3: human [1-305]-mouse chimeric EL with C2 tag (human; mouse) (UniProt Q9WVG5)
T3 sequence: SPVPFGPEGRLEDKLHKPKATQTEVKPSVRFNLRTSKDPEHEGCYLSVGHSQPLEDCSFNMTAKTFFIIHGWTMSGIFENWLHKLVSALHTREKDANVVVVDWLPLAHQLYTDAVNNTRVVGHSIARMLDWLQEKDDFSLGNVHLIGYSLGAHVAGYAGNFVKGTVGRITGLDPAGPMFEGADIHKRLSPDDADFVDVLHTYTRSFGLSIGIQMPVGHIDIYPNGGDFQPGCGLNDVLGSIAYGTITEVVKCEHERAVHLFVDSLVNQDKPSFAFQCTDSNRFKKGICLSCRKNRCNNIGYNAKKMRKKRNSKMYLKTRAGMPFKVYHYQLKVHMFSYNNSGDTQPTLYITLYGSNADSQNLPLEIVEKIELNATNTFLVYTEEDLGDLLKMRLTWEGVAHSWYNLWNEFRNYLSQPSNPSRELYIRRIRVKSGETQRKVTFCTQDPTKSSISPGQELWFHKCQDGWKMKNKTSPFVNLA

B1: 7D4 antibody (antibody, V domains shown)
VH: QIQLVQSGPELKKPGETVKISCKASGYTFTNYGMNWVKQAPGKDLKWMGWINTYSGVPTYADDFKGRFAFSLETSASTAYLQINNLKNEDTATYFCARFSYYGRHYFDYWGQGTTLTVSS
VL: DIVLTQSPASLAVSLGQRATISCKASQSVDYDGDSYMNWYQQKPGQPPQLLIYAASNLGSGIPARFSGSGSGTDFTLNIHPVEEEDAATYYCHQSTDDPPWTFGGGTKLEIK
B2: 14A1 antibody (antibody, V domains shown)
VH: B1 VH with D44G, L86F, T115A, V118A
VL: B1 VL with Q49K, G59K, H93Q, S95T
B3: 53A11 antibody (antibody, V domains shown)
VH: EVQLQQSGPELLKPGASVKISCKASGYTFTDYTMHWVKQSHGKSLEWIGGINPYYGGTTYNEKFKDKATLTVDKSSSTAYMELRSLTSEDSAVYYCAKGDYYGGSYNYWGQGTTLTVSS
VL: DIVLTQSLATLSVTPGDSVSLSCRASQDISNSLHWYQQKSHESPRLLIKYASQSISGIPSRFSGSGSGTDFTLSINSVETEDFGMYFCQQSNSWPYTFGGGTKLEIK
B4: 13B3 antibody (antibody, V domains shown)
VH: EVQLQQSGPELLKPGASVKISCKASGYTFTEYTMHWVKQSHGKSLEWIGSINPYYGGTSYNEKFKDKATLTVDKSSNTAYMEFRSLTSEDCAVYYCARYGNYVGYFDYWGQGTTLTVSS
VL: ENVLTQSPAIMSASLGEKVTMSCRASSSVHYMYWYQQKSDASPKLWIYYTSNLAPGVPDRFSGSGSGNSYSLTISSMEGEDAATYYCQQFTSSPYTFGGGTKLEIK
B5: 23H8 antibody (antibody, V domains shown)
VH: EVQLQQSGPELLKPGASVKISCKASGYTFTDNTIHWVKQSHGKSLEWIGHINPYYGGTNNNEKFKDKATLTVDKSSSTAYMELRSLTSEDSAIYYCARKGIYYSSPFDYWGQGTTLTVSS
VL: DIQMTQTTSSLSASLGDRVTISCRASQDINNYLNWYQQKPDGTVKLLISYTSKLHSGVPSRFSGSGSGTDYSLTISNLEREDFATYFCQQGNTLPFTFGSGTNLEIK
B6: 16B3 antibody (antibody, V domains shown)
VH: DVKLVESGGGLVQPGGSLKLSCTASGFTFSGYTMSWVRQTPEKRLELVAEISFARDRAFYPDTVKGRFTISRDNAKNTLYLQMSSLKSEDTAMYYCTRLGGRNHDYWYFDVWGTGTTVTVSS
VL: DIVLTQSPTSLAVSPGQRATISCRASESVEYYGTSLMQWYQQKPGQRPQLLIYAASNVESGVPARFSGSGSGTDFSLNIHPVEEDDIAVYFCQQSWKVPFTFGSGTKLEIK
B7: 55A1 antibody (antibody, V domains shown)
VH: B1 VH with Q3H, D44G, D62G, F99R, S100G, H105R, Y109V, Q112T, L116V
VL: DIVLTQSPASLAVSLGQRATISCKASQSVDYDVDSYMHWYQQKPGQPPKLLIYAASNLASGIPARFSGGGSGTDFTLNIHPVEEEDVATYYCQQTIEDPPTFGGGTKLEIK
B8: 16E7 antibody (antibody, V domains shown)
VH: B6 VH with D1E, T23A, G31S, A54T, D56S, T97A, R102N, H104Y
VL: B6 VL with P15L, Q49K, V89M
B9: 14E1 antibody (antibody, V domains shown)
VH: QVQLQQSGAELVKPGASVRLSCKASGYTFTKYTIHWVKQRSGQGLEWIGWFYPGSDSIKYNEKFKDKATLTADKSSRTVYMELSRLTSEDSAVYFCARHEEYTNSLAYWGQGTLVTVSA
VL: B5 VL with N30S, K39Q, S49Y, K53R, R80Q, F83I, N92Y, F96W, S100G
B10: 19E7 antibody (antibody, V domains shown)
VH: QVQLQQPGSVLVRPGASVKLSCKASGYTFTTYWMHWVKQRPGQGLEWIGEIHPYSGNNNNNEKFKGKATLTVDTSSSTAYVDLSRLTSEDSAVYYCARYDSNYVFAYWGQGTLVTVSA
VL: QIVLTQSPAIMSASPGEGVTITCSASSSVSYMHWFQQKPGTSPKLWIYSTSNLASGVPARFSGSGSGTSYSLTISRMEAEDAATYYCQQRDSYLTFGSGTKLEVK

Tests used:
Assay in all cases: ELISA: antibody captured on anti-mouse IgG-Fc plate, C2-tagged EL heparin extract added, anti-C2-tag detection, A450 (Example 8)
[1] = biological target: T1, human [1-157]-mouse chimeric EL with C2 tag (human; mouse)
[2] = biological target: T2, human [202-500]-mouse chimeric EL with C2 tag (mouse; human)
[3] = biological target: T3, human [1-305]-mouse chimeric EL with C2 tag (human; mouse)

Binder	EC50 (read off the curve) [1] [ng/mL]	EC50 (read off the curve) [2] [ng/mL]	other results
B1	6		
B2	7		
B3	6		
B4	4		
B5	4		
B6		4	
B7	4		
B8		8	
B9		20	
B10			EC50 (read off the curve) [3]: 6 ng/mL
